In patent US20200341015A1:
One block for each molecule: values may come before it.

Legend:
Experiment in all cases: cell-based or functional assay
[1] = molecular target: recombinant human Rab6A (Jena Biosciences) (human) (UniProt P20340)
[2] = molecular target: recombinant human Rab6A (Jena Biosciences) (human) (UniProt P20340); remark: listed apart in the source
[3] = molecular target: recombinant human Rab27A (Abnova Corporation) (human) (UniProt P51159)
Sequence of UniProt P51159 (P51159 whole entry): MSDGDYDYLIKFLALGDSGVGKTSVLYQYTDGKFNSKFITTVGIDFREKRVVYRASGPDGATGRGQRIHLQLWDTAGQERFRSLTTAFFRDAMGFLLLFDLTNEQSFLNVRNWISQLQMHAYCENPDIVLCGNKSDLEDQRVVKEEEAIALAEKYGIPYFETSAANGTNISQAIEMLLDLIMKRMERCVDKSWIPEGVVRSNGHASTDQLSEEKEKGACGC

Sequence of UniProt P20340 (P20340 whole entry): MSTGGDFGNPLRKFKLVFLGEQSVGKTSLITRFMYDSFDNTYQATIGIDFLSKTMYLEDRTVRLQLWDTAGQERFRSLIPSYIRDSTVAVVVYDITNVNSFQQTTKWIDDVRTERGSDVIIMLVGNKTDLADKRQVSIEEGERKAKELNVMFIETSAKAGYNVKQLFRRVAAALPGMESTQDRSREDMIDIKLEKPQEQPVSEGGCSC

- band intensity of biotinylated Rab6a in positive controls, fold against the Rab27a data of FIG. 2 [1]: 100 fold
Molecule: recombinant fish His-REP1 (Jena Biosciences)

- band density of biotinylated substrate, fold against Rab27a in matching conditions [2]: < 2.5 fold
- band density values of biotinylated Rab substrate, condition 12 [2]: 1.8
- band density values of biotinylated Rab substrate, condition 15 [2]: 0.75
- baseline biotin incorporation in untransduced samples (band density) [2]: 5.01 a.u.
- best-fit top of the curve, biotin incorporation against MOI of rAAV2/2-REP1 (4-PL) [2]: 92.8 a.u.
- biotinylated substrate, fold against Rab27a (untransduced 293 lysate) [2]: 2.5 fold
- strength of the WB signal of biotinylated Rab6a, fold against the Rab27a data of FIG. 2 (AAV-REP1 transduced cells) [2]: 10 fold
- band density values of biotinylated Rab substrate, condition 4 [3]: 0.8
- band density values of biotinylated Rab substrate, condition 7 [3]: 0.3
- baseline biotin incorporation in untransduced samples (band density) [3]: 0.577 a.u.
- best-fit top of the curve, biotin incorporation against MOI of rAAV2/2-REP1 (4-PL) [3]: 53.8 a.u.
B1: human Rab escort protein 1 (REP1) (protein, UniProt P24386 1-653, looked up)
chain: MADTLPSEFDVIVIGTGLPESIIAAACSRSGRRVLHVDSRSYYGGNWASFSFSGLLSWLKEYQENSDIVSDSPVWQDQILENEEAIALSRKDKTIQHVEVFCYASQDLHEDVEEAGALQKNHALVTSANSTEAADSAFLPTEDESLSTMSCEMLTEQTPSSDPENALEVNGAEVTGEKENHCDDKTCVPSTSAEDMSENVPIAEDTTEQPKKNRITYSQIIKEGRRFNIDLVSKLLYSRGLLIDLLIKSNVSRYAEFKNITRILAFREGRVEQVPCSRADVFNSKQLTMVEKRMLMKFLTFCMEYEKYPDEYKGYEEITFYEYLKTQKLTPNLQYIVMHSIAMTSETASSTIDGLKATKNFLHCLGRYGNTPFLFPLYGQGELPQCFCRMCAVFGGIYCLRHSVQCLVVDKESRKCKAIIDQFGQRIISEHFLVEDSYFPENMCSRVQYRQISRAVLITDRSVLKTDSDQQISILTVPAEEPGTFAVRVIELCSSTMTCMKGTYLVHLTCTSSKTAREDLESVVQKLFVPYTEMEIENEQVEKPRILWALYFNMRDSSDISRSCYNDLPSNVYVCSGPDCGLGNDNAVKQAETLFQEICPNEDFCPPPPNPEDIILDGDSLQPEASESSAIPEANSETFKESTNLGNLEESSE
